Laboratory results from publication PMC7873233.

Legend:
[1] = target: 16055 SOSIP.v5.2 (HIV-1 (clade C isolate 16055)); assay: negative-stain EM; PGT145-purified protein, 20-50 ug/mL on carbon-coated Cu grids, 2% uranyl formate, 2D class averages; gp120-gp41 protomers to trimer
[2] = target: 16055 SOSIP.v8.3 (HIV-1 (clade C isolate 16055)); assay: as above

Substance | percent native-like trimers [1] [%] | stoichiometry N [1] | percent native-like trimers [2] [%] | stoichiometry N [2]
16055 SOSIP.v5.2 (complex) | 72 | 3 |  | 
16055 SOSIP.v8.3 (complex) |  |  | > 95 | 3
